Data taken from the nanobody polyreactivity screen of Harvey et al. (2022).

Test: yeast display, Sf9 membrane polyspecificity reagent, FACS + sequencing; frameworks hold sequencing errors
Method in brief: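 Galactose induction of a Saccharomyces cerevisiae BJ5465 synthetic nanobody display library ran 36–48 hours. The cells were then stained for 1 hour at 4 °C with 10% biotinylated, detergent-solubilized Sf9 membrane reagent, pulled down on streptavidin microbeads and FACS-sorted into low and high (top ~1%) gates on expression and reagent-binding fluorescence. Labels for polyreactivity follow the gate of origin.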

Sequence	polyreactivity (PSR sort gate)
QVQLVESGGGLVQAGGSLRLSCAASGIIFSYYAMGWYRQAPGKERELVAAISSGGSTNYADSVKGRFTISRDNAKNTVYLQMNSLKPEDTAVYYCAPLYRDYDWIFEYWGQGTQVTVSS	low polyreactivity
QVQLVESGGGLVQAGGSLRLSCAASGRTSYGYAIGWYRQAPGKERELVAAITYGGGSTYYADSVKGRFTISRDNEKNTVYLQMNSLKPEDTAVYYCAADRTGSTLYTIRYYYWGQGTQVTVSS	low polyreactivity
QVQLVESGGGLVQAGGSLRLSCAASGRTFVRNAMGWYRQAPGKERELVAGIRRGGTTNYADSVKGRFTISRDNAKNTVYLQMNSLKPEDTAVYYCNALYRYGWLYAPKYNSWGQGTQVTVSS	high polyreactivity
QVQLVESGGVLVHAGGILRLSCAASGSTIVRYAMGWYRQAPGKERELVAAKSSRGGSTYYADSVKGRFTITRDNAKNTVYLQMNILKPEDTGVYYCSAAPPGTIAYRVGSWGQGTQVTVSS	high polyreactivity
QVQLVESGGRLVQAGGSLRLSSAASGRTFTSYAMGWYRQSPGKERELVAAISRRGGSTYYADSVKGRFTISRDNAKNTVYLQMNSLKPEDTAVYYCNKATRYYLVELNYWGQGTQVTVSS	high polyreactivity
QVQLVESVGGLVQAGGSLRLSCAASGFNFRVYPMGWYRPAPRKERELVAAISVSGGSTTYADSVNGRFTISRDNAKNTVYLQMNSLKPEDTAVYYCAADYDFFSLYLYDYWGQGTQVTVSS	low polyreactivity
QVQLVESGGGLVQAGGSLRLICAASGFTFGYYPMGWYRQAPGKERELVAAINWSGVNTNYADSVKGRFTISRDNAKNTVYLQMNSVKPEDTAVYYCAADAGYDGYGYWGQGTQVTVSS	low polyreactivity
QVQLVESGGGLVQAGGSLRLSCAASGNILVENAMGWYRQAPGKERELVAVSTSGTSTYADSVKGRFTISRDNAKNSVSFQMNSLKPEDTAVYYCNARRINTLYDSWGQGTLVTVSS	low polyreactivity
QVQLVESGGGLVQAGGSLRLSCAASGSIFYSNAMGWYRQAPGKERELVADISWSDGSTYYADSVKGRFTISRDNAKNNVYLQMNSLKPEDTEVYYCARKAGYSYFRRYDYWGQGTQVTVSS	low polyreactivity
QVHLVESGGGLVQAGGSLRLSCAASGRTFKHYAMGWYRQEPGKERELVAAITSGGSTYYADSVKGLFTISRDNAKNPVYLQMNSLKPEDTAVYYCNTESFFDTYRRYDSWGQGTQVTVSS	low polyreactivity
QVQLVESGGGLVQAGGSLRLSSAASGITFRFYSMGWYRQAPGKEREFVAAISTRGGRTYYADSVKGRFTISRDNAKNTVYLQMKSLKPEDTAVYYFAADFYYRTVATVTSVARYDYWGQGTQVTVSS	high polyreactivity
QVQLVESRGGLVQAGGSLRLSCAASGYIFGDYAKGWYRQAPGKERELVAAITQTGGNTYYADSVKGRFTISRDNAKKTVYLQMNSLKPEDTAVYYCAAPALGNYFYGYDYWGQGTQVTVSS	low polyreactivity
QVQLVESWGGLVQAGGSLRLSCAASGFTFTGYAMGWYRQAPGKERELVAAISQSGGSTYADSVKGRFTISRDNAKNTVYLQMNSLKPEDTAVYYCAAVWFLLTEYDYWGQGTQVTVSS	low polyreactivity
QVQLVESGGGLVQAGGSLRLTCAASGRTFYPYAMGWYRPAPGKERELVAAISSGVRTYYADSVKGRFTISRDNAKNTVYLQMNSLKPDDTAVYYCAARRSIWGQGTQVTVSS	high polyreactivity
QFQLVESGRGLVQAGGSLRLSCAASGNTFGPYAMGWYRQAPGKERELVAAISSGGSTNYADSVKGRFTISRDNAKNTVYLQMNSLKPEDTAVYYCAAPYRSYVRYKYDYWGQGTLVTVSS	low polyreactivity
QVQLVVSGGGLVQAGGILRLICAASGIIFSFYTMGGYRQAPGKERELVAAISTGGGSTYYADSVKGRFTISRDNAKNTVYLQMNSLIPEDTAVSYCAASQSWYWGGAHDNGEFGYCGQGTQVTVSS	low polyreactivity
QVQLVESGGGLVQAGGSLRLSCAASGSTFTLYVMGWYRQAPGKERELVAAITSSGDSTDYADSVKGRFTISRDNAKNTVYLQMNSLKPEDTAVYYCNVQPVYADHFTEFDYWGQGTQVTVSS	low polyreactivity
QVKLVESGGGLVQAGGSLRLSCAASGIIFYSYAIGGYRPAPGTERELVAAISSTGSTYYADSVKGRFTISRDNAKNTVYLQMNSLKPEDTAVYYCAATFYPYQVHHYYYWGQGTQVTVSS	low polyreactivity
QVQLVESGGGLVQAGGSLRLSCASSGFTFRLNAMGWYRQAPGKERELVAAITRSGGNTYYADSVKGRFTISRDNAKNTVYLQMNSLKPEDTAVYYCAVRQLDRRSPKYNYWGQGTQVTVSS	high polyreactivity
QVQLVESGGGLVQAGGSLRLSCAASGSIFRGYAMGWYRPAPGKERELVAAISSSGGTTYYADSVKGRFTISRDNAKNTVYLQMNSLKPEDTAVYYCNARHPYTGGRRYPYTRYDYWGQGTQVTVSS	high polyreactivity
QVQLVESGGGLVQAGGSLRLSCAASGIIFNYYAMGWYRQAPGKERELVAAISFSGGRTYYADSVKGRFTISRDNAKNTVYLQMNCLKPEDTAVYYCNAVYRNSILAFPGEYDYWGQGTQVTVSS	high polyreactivity
QVQLVESGGGLVQAGGSLRLSCAASGRTFRVYAMGWYRQAPGKERELVAAITRGGSTYYADSVKGRFTISRDNAKNTVYLQMNSLKPEDTAVYYCATYSHALRYDYWGQGTQVTVSS	high polyreactivity

Sequence	polyreactivity (PSR sort gate)
QVQLVESGGGLVQAGGSLRLSRAASGFTWSYAMGWYRQAPGKERELVATISDGVSTNYADSVKGRFTISRDNAKNTVYLQRNSLKPEDTAVYYCAAEIPRRWASFATLWYDYWGQGTQVTVSS	low polyreactivity
QVHLVESGGGLVQAGGSLRLSCAASGRTFIIYAMGWYRPAPGKERELVADISSGGSTYYADSVKGRFTISRDNAKNTVYLQMNIVKPEDTAVYYCAAQSWYFPIGYDYWGQGTQVTVSS	low polyreactivity
QVQLVESGGGLVQAGGSLRLSCAASGFTFFSNAMGWYRQAPGKEREFVASISRSGGRTYYADSVKGRFTISRDNAKNTVYLQMNSLKPEDTAVYYCAADVPYYLHNHRYGYWGQGTQVTVSS	high polyreactivity
QVQLVESGGGLVQAGGSLRLSCAASGRIFKRYAMGWYRQAHGKERELVASITWSGGSTYYADSVKGRFTISRDNAKNTVYLQMNSLKPEDTEVYYCAARRTATTSRAYYYWGQGTQVTVSS	high polyreactivity
QVQLQESGGSLVQAGGILRLSCAACGNIFPSAVMGWYRQALGKEREFVATINSGSYTYYADSVKVRFTISRDNAKNTVYLQMNSLKLDDSAVYYCAAYFKLPAWHTYWGQGTQVTVSS	low polyreactivity
QVQLVESGGGSVQAGGSLRLSCAASGIIFWYYTMGWYRQAPGKERELVAAISWSSGITYYADSVKGRFTISRDNAKNTVYLQMNSLKPEDTAVYYCAAAVSPHSEGFGEYNYWGQGTQVTVSS	low polyreactivity
QVQLVESGGGLVKAGGSLRLSCAASGGTFPLYAMGWYRQAPGKERELVAAIRWSGGRTYYADSVKGRFTISRDNAKNTVYLQMNSLKPEDTAVYYCSADYDDGWGYDYWGQGTQVTVSS	high polyreactivity
QVQLVESGGGLVQAGGSLRLSCAASGSTSRTYAMGWYRQAPGKERELVAAINSGGTTYYADSVKGRFTISRDNAKNTVYLQMNSLKPEDTAVYYCARRDFWWSRRIFGYWGQGTQVTVSS	high polyreactivity
QVQLVESGGGLVQAGGSLRLSCAASGNIFYTYAMGWYRQAPGNERELVAGISSDASTTYADSVKGRFTISRDNAKNTVYLPMKSLNPEDTAVYYCPADITGIVWYVYYYWGQGTQVTVSS	low polyreactivity
QVQLVESGGGLVQAGGSLRLSCAASGSIFRHNAMGGYRQSPGKERELVAAISRRASSTYYADSVKGRFTISRDNAKNTVYLQLNSLKPEDTAVYYCAVVPSTTYHAYDYWGQGTQVTVSS	high polyreactivity
QVQLVESGGGLVQAGGSLRLSCAASGIIFPGYAMGWYRQAPGKVRELVAAISSGGDTYYADSVKGLFTISRDNAKNTVYLQMNSLNPEDTAVYYCTAAQLSSDRTSTYGYWGQGTKVTVSS	low polyreactivity
QVQLVESGGGLVQAGGSLRLSCAASGLTLDYYAMGWSRQGPGKERELVAVIRGRSGSTYYADSVKGRFTISRDNAKNTDYLQMNSLKPEDTAVYYGARVTTYGDYYWGQGTQVTVSS	high polyreactivity
QVNLVESGGGLVQAGGSLRLSCAASGIIFRSYAMGWYRPAPGKARELVADITSTGTSTYYADSVKGRFTISRDNAKNTVYLQMNSLKPEDNAVYYCNADRFGFYPQRDYWGQGTQVTVSW	high polyreactivity
QVHLVESGGGLVQAGGSLRLSCAASGRTFSKYAMGWYRPAPGKERELVAAITSRGSSTYYADSVKGRFTISRDYAKNTVYLLMNSLKPEDTAVYYCNAGGYYIRTGWYRSGSDYWGQGTQVTVSS	high polyreactivity
QVQLVESGGGLVQAGGSLRLICAASGFIFPHNTMGWYRQAPGKERELVAAISSGGSTNYADSVKGRFTLSRDNAKNTVYLQMNSLKPEDTAVYYCATVSVRWPSNDHVRYDYWGQGTQVTVSS	low polyreactivity
QDQLVESGGGLVQAGGSLRLSCAASGSIFSVYVMGWYRQAPGKERELVATISSGGGTYYADSVKGRFTISRDNAKNTVYLQMNSLKPEDTAVYYCNADWDDWKGDYWGQGTQVTVSS	low polyreactivity
QVQLVESGGGLVQAGGSLRLSCAASGRTFDRYAMGWARQAPGKERELVATISRSGGSTYYADSVKGRFTISRDNAKNTVYLQMNSLKPEDSAVYYCAARQRTTSDGWRDSWGQGTQVTVSS	high polyreactivity
QVQLVESGGGLVQAGGSLRLSCAASGLTFYANAMGWYRQAPGKERELVAAITSSGGSTYYADSVKGRFTISRDNAKNTVYLQMNSLKPDDTAVYYCNAYFRPRYGYWGQGTQVTVSS	high polyreactivity
QVQLVESGGGLVQAGGSLRLSCAASGRTFYAYTMGWYRQAPGKERELVAAISSSGGSTYYADSVKGRFTISRDNAKNTVYLQMNSLKPEDTAVYYCAAVWYFNRRVSGYYYWGQGTQVTVSS	high polyreactivity
QVQLVESGGGLVQAGGSLRLSCAASGLIFVDNAMGWYRQAPGKERELVAAIDSGGRTYYADSVKGRFTISRDNAKNTVYLQMNSLKPEDTAVYYCAAPWRLFCLYDYWGQGTQVSVSS	low polyreactivity
QVQLVESGGGLVQAGGSLRLSSAASGSTIYYYAMGLYRQAPGKEREFVATITQSGGSTYYADSVKGRFTISRDNAKNTVYLQMNSLKPEDTAVYYCAADSWEVDEADIYNSWGQGSQVTVSS	low polyreactivity
